Experimental data: paper PMC4332690

Key:
[1] = target: PIDD death domain (PIDD-DD), human, residues 778-883 (human) (UniProt Q9HB75); experiment: native MS; nanoESI-MS, positive ion mode; 15 μM purified complex in 50 mM ammonium acetate pH 7.8
[2] = target: PIDD death domain (PIDD-DD), human, residues 778-883 (human) (UniProt Q9HB75); experiment: SEC-MALS; as a1 but total protein loaded 1.5 mg/mL (lowest concentration; some subunit dissociation)

Chain of UniProt Q9HB75 (Q9HB75 778-883): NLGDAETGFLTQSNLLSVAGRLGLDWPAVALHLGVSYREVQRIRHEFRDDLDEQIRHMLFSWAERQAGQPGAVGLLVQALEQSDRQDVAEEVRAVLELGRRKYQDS

Row | Substance | population of the 5:5 complex [1] | population of the 6:5 complex [1] | population of the 7:5 complex [1] | stoichiometry N (RAIDD-DD per PIDD-DD (5:5)) [1] | stoichiometry N (RAIDD-DD per PIDD-DD (6:5)) [1] | stoichiometry N (RAIDD-DD per PIDD-DD (7:5)) [1] | population of the 5:4 complex [1] | stoichiometry N (RAIDD-DD per PIDD-DD (5:4)) [1] | stoichiometry N (RAIDD-DD per PIDD-DD (R4:P4)) [2]
1 | RAIDD death domain (RAIDD-DD), human, residues 99-199, wild type (from UniProt P78560 99-199) (domain or fragment) | 28% | 43% | 29% | 1 | 1.2 | 1.4 | – | – | –
2 | RAIDD-DD (E188K) (from UniProt P78560 99-199) (domain or fragment) | 87% | – | – | 1 | – | – | 13% | 1.25 | 1
